# Results published in the supplement of paper PMC10724198.
# ± gives the standard deviation of the averaged measurements.
# Tested on: Saccharomyces cerevisiae
# Experiment: protein stability index of tFT-peptide fusion (C-terminal peptide) (PSI (0-1 scale)); higher = more stable (slower turnover)
# Conditions: genetic background: wild type; temperature: 30 C
# 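Also: PSI is a weighted mean of sequencing reads over stability bins, variants kept only with over 10 reads, mCherry proximal and sfGFP distal, peptide attached via GGGS linker.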
row,Sequence,protein stability index
1,PPPPGSKPPPSP,0.722 ± 0.028
2,PPPPHPPFPPRF,0.722 ± 0.047
3,PPPPHPPPSLRA,0.67716 ± 6e-05
4,PPPPHRSHLPHS,0.697 ± 0.03
5,PPPPLPPAPPLP,0.6607 ± 8.2e-05
6,PPPPLPPRPSPP,0.71 ± 0.074
7,PPPPLPSFPSSS,0.858 ± 0.062
8,PPPPLTPPHLSP,0.713 ± 0.039
9,PPPPPAPLPSSL,0.671 ± 0.02
10,PPPPPCSPPSPP,0.681 ± 0.025
11,PPPPPHPPPHTR,0.678 ± 0.017
12,PPPPPLHSSPWL,0.737 ± 0.14
13,PPPPPLLLPPPA,0.651 ± 0.038
14,PPPPPLLTRPLP,0.699 ± 0.081
15,PPPPPLPRSSLS,0.6968 ± 0.0041
16,PPPPPPAPPSPA,0.726 ± 0.051
17,PPPPPPHPLLST,0.708 ± 0.073
18,PPPPPPLFPSPP,0.772 ± 0.13
19,PPPPPPLHATPL,0.6969 ± 0.0065
20,PPPPPPLSPCPS,0.704 ± 0.099
21,PPPPPPLSRTST,0.723 ± 0.082
22,PPPPPPPALPSL,0.6668 ± 0.0034
23,PPPPPPPAPPPC,0.7243 ± 0.0033

row,Sequence,protein stability index
1,PPPPPPPDPVPP,0.645 ± 0.039
2,PPPPPPPHPPHL,0.728 ± 0.031
3,PPPPPPPLVPPS,0.595 ± 0.036
4,PPPPPPPPCGTP,0.633 ± 0.014
5,PPPPPPPPPCSP,0.7052 ± 0.0024
6,PPPPPPPPPPPL,0.677 ± 0.028
7,PPPPPPPPPPTL,0.712 ± 0.028
8,PPPPPPPPRLTP,0.754 ± 0.074
9,PPPPPPPPRPLL,0.787 ± 0.16
10,PPPPPPPPSSSL,0.6819 ± 0.0041
11,PPPPPPPSPLAP,0.707 ± 0.015
12,PPPPPPSPPLSP,0.677 ± 0.028
13,PPPPPPSPPPSP,0.633 ± 0.044
14,PPPPPPYHPTPP,0.6685 ± 0.0011
15,PPPPPRAPPLPP,0.679 ± 0.029
16,PPPPPRAPSLLA,0.704 ± 0.03
17,PPPPPRPSPRPS,0.796 ± 0.013
18,PPPPPSRPPPAL,0.7405 ± 0.0049
19,PPPPPSSPPALL,0.663 ± 0.058
20,PPPPPTFPVLTS,0.603 ± 0.046
21,PPPPPTLPSCLS,0.689 ± 0.063
22,PPPPPTRLPQNS,0.694 ± 0.062
23,PPPPRPLPSSNG,0.76 ± 0.049

row,Sequence,protein stability index
1,PPPPRPPATPFP,0.676 ± 0.052
2,PPPPRPPPPATL,0.662 ± 0.02
3,PPPPRPPPVPPF,0.61 ± 0.048
4,PPPPRPPRDPPR,0.6629 ± 0.00098
5,PPPPRPSPPPPS,0.694 ± 0.028
6,PPPPRPSSPLIL,0.741 ± 0.021
7,PPPPRSSPSPLP,0.668 ± 0.077
8,PPPPRVLSPAWS,0.649 ± 0.072
9,PPPPSLAPRSAL,0.724 ± 0.048
10,PPPPSLLPPSPS,0.702 ± 0.068
11,PPPPSLPPPLPL,0.698 ± 0.022
12,PPPPSLVPPSPL,0.677 ± 0.063
13,PPPPSPPSPPPP,0.677 ± 0.0094
14,PPPPSPRPRPAP,0.657 ± 0.025
15,PPPPSRLPYNPF,0.662 ± 0.023
16,PPPPTPLPPPHD,0.652 ± 0.037
17,PPPRPPLPPPPS,0.727 ± 0.034
18,PPPRPPSTTSPC,0.7037 ± 0.0047
19,PPPRPRPPPRPP,0.581 ± 0.021
20,PPPRPTHSRPGP,0.64 ± 0.057
21,PPPSHYHSQGHN,0.686 ± 0.016
22,PPPSPHRLDHLT,0.704 ± 0.016
23,PPPSPLPSPPPP,0.5916 ± 0.0031

row,Sequence,protein stability index
1,PPPSPLPSPPPS,0.746 ± 0.043
2,PPPSPPLPIPPS,0.697 ± 0.022
3,PPPSPPSPLSPP,0.675 ± 0.073
4,PPPSSLVPFPLP,0.7295 ± 0.0053
5,PPPSSPTSGHSP,0.771 ± 0.19
6,PPPSTGGTRSNV,0.6809 ± 0.0051
7,PPPTLSPPPPPL,0.75 ± 0.034
8,PPPTPHPLRRTP,0.735 ± 0.069
9,PPPTPSPPPLPP,0.5748 ± 0.0057
10,PPPTPTFPVPPH,0.6021 ± 0.00058
11,PPPTSPPRPASP,0.697 ± 0.059
12,PPPVAPRSPAHL,0.713 ± 0.074
13,PPPVPPLPSPLP,0.649 ± 0.022
14,PPPVPPPSPPPT,0.641 ± 0.07
15,PPPVSLFSPRSL,0.781 ± 0.099
16,PPQPTTPFPSPQ,0.6788 ± 0.0063
17,PPQRHTTPTSWG,0.75862 ± 0.00034
18,PPQTSVASRPTR,0.695 ± 0.019
19,PPRASPRMPAGC,0.71506 ± 3.7e-05
20,PPRGDPRAYLPP,0.654 ± 0.011
21,PPRNPAALPTPI,0.718 ± 0.11
22,PPRPLAPSPTLF,0.679 ± 0.021
23,PPRPLPPHPLLL,0.681 ± 0.049

row,Sequence,protein stability index
1,PPRPLPPPRPSS,0.691 ± 0.037
2,PPRPLPPSLPPP,0.695 ± 0.037
3,PPRPPFPLPSPL,0.703 ± 0.025
4,PPRPPLHPLRLL,0.6651 ± 0.0013
5,PPRPPLPRPLPP,0.657 ± 0.041
6,PPRPPPNTPLPA,0.725 ± 0.035
7,PPRPPPPHHVPS,0.677 ± 0.093
8,PPRPPSSPLPPR,0.733 ± 0.055
9,PPRPSSRVPPPA,0.65 ± 0.059
10,PPRPTPLPHAPP,0.681 ± 0.02
11,PPRPTPYPPLPP,0.674 ± 0.062
12,PPRRPSFAPPHL,0.704 ± 0.014
13,PPRSIPLPSPFH,0.741 ± 0.016
14,PPRSPHLPRSSL,0.664 ± 0.069
15,PPSHGYPPRLIP,0.67842 ± 0.00022
16,PPSHPLSPLSRL,0.722 ± 0.067
17,PPSLPPPIHLPL,0.646 ± 0.011
18,PPSLPPSPPLPP,0.694 ± 0.011
19,PPSLRFLLPPSA,0.685 ± 0.058
20,PPSPDATPLSHI,0.678 ± 0.035
21,PPSPHPSASTRP,0.714 ± 0.04
22,PPSPLPPTPSHS,0.737 ± 0.076
23,PPSPLPSPPPTF,0.718 ± 0.025

row,Sequence,protein stability index
1,PPSPLYAFPYPL,0.757 ± 0.0099
2,PPSPPDSPPPAS,0.665 ± 0.014
3,PPSPPPPALSSS,0.665 ± 0.056
4,PPSPPPPLPLLP,0.661 ± 0.077
5,PPSPPPPLYPPA,0.683 ± 0.038
6,PPSPPPPPPFVP,0.717 ± 0.033
7,PPSPPPPPRFLP,0.662 ± 0.041
8,PPSPPPPPVVVP,0.606 ± 0.11
9,PPSPSLRSLPRP,0.626 ± 0.064
10,PPSPSPPPPPPT,0.648 ± 0.04
11,PPSRAPPAFPPL,0.827 ± 0.2
12,PPSVLLPLACPP,0.677 ± 0.008
13,PPSVPAPPLPDP,0.675 ± 0.038
14,PPTAPTYRQSQP,0.6754 ± 0.001
15,PPTFPHLPHSWP,0.792 ± 0.018
16,PPTHPPPRLTPL,0.707 ± 0.081
17,PPTIHPSPAAPH,0.623 ± 0.062
18,PPTPGPPPLRYP,0.705 ± 0.068
19,PPTPLIPPLPLH,0.716 ± 0.043
20,PPTPPLPPRLPP,0.686 ± 0.0098
21,PPTPPSIPPSPP,0.624 ± 0.064
22,PPTPSPATSPPP,0.713 ± 0.034
23,PPTSPGPGSLYS,0.693 ± 0.036

row,Sequence,protein stability index
1,PPTSPSNALPFA,0.6666 ± 0.0032
2,PPVLPPPAPLPP,0.6548 ± 0.0047
3,PPVRLLPCVCHF,0.708 ± 0.049
4,PPWLPAPFPLPD,0.695 ± 0.045
5,PPWPPYPRPPSS,0.679 ± 0.053
6,PPWTNALMILLD,0.689 ± 0.039
7,PPYPPTPHQTSH,0.641 ± 0.034
8,PPYSIPARAPHP,0.7036 ± 0.0015
9,PQFSPCRLALLS,0.616 ± 0.018
10,PQIRTPIPGSFS,0.743 ± 0.074
11,PQNTNNPENGHC,0.667 ± 0.04
12,PQPEAPSRPQLA,0.746 ± 0.065
13,PQRPPPALACPP,0.703 ± 0.083
14,PQSKWLTTFRQK,0.713 ± 0.095
15,PQSSGVSPIPPP,0.77 ± 0.078
16,PQSSLPPLSTSS,0.686 ± 0.011
17,PQTSRAPFPPPP,0.7125 ± 0.0058
18,PQVGWFCNRLEV,0.836 ± 0.17
19,PQWFPNYLRLLL,0.517 ± 0.041
20,PRAGPPPPPPSP,0.734 ± 0.028
21,PRAPRPHPLTNF,0.673 ± 0.051
22,PRASDPPPSPYP,0.766 ± 0.057
